In EP4650366A1 (Beijing Tuo Jie Biopharmaceutical Co. Ltd., dated 2025):
Like-named read-outs stand apart in the source and are kept apart here.

T1: human TGFβ2 expressed by transfected HEK293E cells (human, UniProt P61812 21-414)
T1 construct: whole, on cells
T1 sequence (looked up): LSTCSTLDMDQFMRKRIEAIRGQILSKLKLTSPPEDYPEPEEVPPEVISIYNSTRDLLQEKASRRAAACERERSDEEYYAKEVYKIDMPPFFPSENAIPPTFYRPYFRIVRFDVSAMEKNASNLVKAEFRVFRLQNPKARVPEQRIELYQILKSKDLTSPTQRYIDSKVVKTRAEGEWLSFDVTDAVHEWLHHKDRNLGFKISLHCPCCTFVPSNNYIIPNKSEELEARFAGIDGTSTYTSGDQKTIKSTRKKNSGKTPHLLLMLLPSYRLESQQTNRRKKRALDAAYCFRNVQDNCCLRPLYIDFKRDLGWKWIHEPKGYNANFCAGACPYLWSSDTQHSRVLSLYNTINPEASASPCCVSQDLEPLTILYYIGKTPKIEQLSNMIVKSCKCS

T2: human GARP-TGFβ2 complex expressed by transfected HEK293E cells (human, UniProt P61812 21-414; Q14392 20-662)
T2 construct: whole, on cells; also called TGFβ2-GARP complex; TGFβ2 + GARP
T2 sequence (looked up) 1: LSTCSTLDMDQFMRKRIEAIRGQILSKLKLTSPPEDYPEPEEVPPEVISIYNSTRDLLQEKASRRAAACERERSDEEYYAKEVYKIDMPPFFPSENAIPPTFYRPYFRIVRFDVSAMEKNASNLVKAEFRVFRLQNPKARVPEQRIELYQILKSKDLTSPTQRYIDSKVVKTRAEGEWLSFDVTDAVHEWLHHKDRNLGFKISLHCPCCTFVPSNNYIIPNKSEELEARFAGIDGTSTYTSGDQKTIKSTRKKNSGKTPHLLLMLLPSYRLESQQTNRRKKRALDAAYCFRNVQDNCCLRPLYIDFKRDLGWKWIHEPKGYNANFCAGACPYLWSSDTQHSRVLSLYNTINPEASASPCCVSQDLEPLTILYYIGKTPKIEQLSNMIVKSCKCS
T2 sequence (looked up) 2: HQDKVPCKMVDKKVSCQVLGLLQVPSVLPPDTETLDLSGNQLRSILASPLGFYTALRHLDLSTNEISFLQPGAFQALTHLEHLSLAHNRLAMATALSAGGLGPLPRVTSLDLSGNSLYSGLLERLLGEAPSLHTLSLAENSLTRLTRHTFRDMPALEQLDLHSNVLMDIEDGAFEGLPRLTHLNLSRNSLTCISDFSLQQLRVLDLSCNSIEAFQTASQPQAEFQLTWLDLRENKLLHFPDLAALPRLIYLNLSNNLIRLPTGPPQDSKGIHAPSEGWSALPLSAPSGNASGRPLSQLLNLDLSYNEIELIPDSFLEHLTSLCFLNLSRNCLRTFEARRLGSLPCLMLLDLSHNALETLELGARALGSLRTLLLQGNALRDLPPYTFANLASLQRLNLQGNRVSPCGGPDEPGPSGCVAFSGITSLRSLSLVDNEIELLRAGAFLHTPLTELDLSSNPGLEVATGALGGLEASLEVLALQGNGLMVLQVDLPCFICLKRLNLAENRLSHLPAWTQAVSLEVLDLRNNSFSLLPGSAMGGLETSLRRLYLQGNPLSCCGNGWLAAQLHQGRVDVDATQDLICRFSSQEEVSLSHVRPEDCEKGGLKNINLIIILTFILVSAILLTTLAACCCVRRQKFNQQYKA

B1: SL2-2 (antibody, human IgG4 S228P, kappa, V domains shown)
VH: not shown
VL: DIQMTQSPSSLSASVGDRVTITCRASQFISDYLNWYQQKPGKAPKLLIYTASYLDSGVPSRFSGSGSGTDFTLTISSLQPEDFATYYCQQSYSTPLTFGGGTKLEIKR
notes: Human IgG4-S228P/kappa, H27 heavy chain
B2: SL2-22 (antibody, human IgG4 S228P, kappa, V domains shown)
VH: not shown
VL: DIQMTQSPSSLSASVGDRVTITCRASQSISDYLNWYQQKPGKAPKLLIYTASYLDSGVPSRFSGSGSGTDFTLTISSLQPEDFATYYCQQSYSTPLTFGGGTKLEIKR
notes: Human IgG4-S228P/kappa, H27 heavy chain; also called TGFβ1 monoclonal antibody SL2-22; anti-human TGFβ1 antibody SL2-22
B3: SL2-12 (antibody, human IgG4 S228P, kappa, V domains shown)
VH: not shown
VL: DIQMTQSPSSLSASVGDRVTITCRASQYISDYLNWYQQKPGKAPKLLIYSASYLDSGVPSRFSGSGSGTDFTLTISSLQPEDFATYYCQQSYSTPLTFGGGTKLEIKR
notes: as for B1
B4: SL2-9 (antibody, human IgG4 S228P, kappa, V domains shown)
VH: not shown
VL: DIQMTQSPSSLSASVGDRVTITCRASQFISPYLNWYQQKPGKAPKLLIYAASELESGVPSRFSGSGSGTDFTLTISSLQPEDFATYYCQQSYSTPLTFGGGTKLEIKR
notes: as for B1
B5: SL2-19 (antibody, human IgG4 S228P, kappa, V domains shown)
VH: not shown
VL: DIQMTQSPSSLSASVGDRVTITCRASQAISPYLNWYQQKPGKAPKLLIYAASELESGVPSRFSGSGSGTDFTLTISSLQPEDFATYYCQQSYSTPLTFGGGTKLEIKR
notes: as for B1
B6: Ab6 (antibody, V domains shown)
VH: QVQLVESGGGVVQPGRSLRLSCAASGFAFSSYGMHWVRQAPGKGLEWVAVISYDGNNKYYADSVKGRFTISRDNSKNTLYLQMNSLRAEDTAVYYCARDLLVRFLEWSHKYGMDVWGQGTTVTVSS
VL: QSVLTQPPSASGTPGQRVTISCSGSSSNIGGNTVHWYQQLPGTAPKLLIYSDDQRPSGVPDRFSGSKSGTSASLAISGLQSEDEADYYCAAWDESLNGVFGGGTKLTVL

Tests used:
[1] = target: T3, Human GARP-TGFβ1 complex (human, UniProt Q14392 20-627; P01137 30-390); experiment: SPR (Biacore T200), method of Example 4
T3 construct: Soluble recombinant complex, co-expressed in ExpiCHO cells and purified; also called human GARP/TGFβ1 protein

[2] = target: T3, Human GARP-TGFβ1 complex; experiment: SPR, method of Example 4; reference H27; antigen not given, taken as the human GARP-TGFβ1 complex as in Table 11
[3] = target: T3, Human GARP-TGFβ1 complex; experiment: SPR (Biacore T200), method of Example 4; remark: listed apart in the source
[4] = target: T4, Mouse GARP-TGFβ1 complex (mouse, UniProt G3XA59 18-628; P04202 30-390); experiment: SPR (Biacore T200), method of Example 4
T4 construct: Soluble recombinant complex, co-expressed in ExpiCHO cells and purified; also called Murine GARP-TGFβ1 complex

[5] = target: T5, human TGFβ1 expressed by transfected cells (human, UniProt P01137 30-390); experiment: flow cytometry on transfected HEK293E cells, 10 nM antibody
T5 construct: whole, on cells; also called human pro-TGFβ1

[6] = target: T6, mouse TGFβ1 expressed by transfected cells (mouse, UniProt P04202 30-390); experiment: as above
T6 construct: whole, on cells; also called mTGFβ1; murine TGFβ1

[7] = target: T7, human GARP-TGFβ1 complex expressed by transfected cells (human, UniProt P01137 30-390; Q14392 20-662); experiment: as above
T7 construct: whole, on cells; also called TGFβ1-GARP complex; TGFβ1 + GARP

[8] = target: T8, mouse GARP-TGFβ1 complex expressed by transfected cells (mouse, UniProt P04202 30-390; G3XA59 18-663); experiment: as above
T8 construct: whole, on cells; also called mTGFβ1-mGARP complex; mTGFβ1 + mGARP

[9] = target: T1, human TGFβ2 expressed by transfected …; experiment: flow cytometry on transfected HEK293E cells, FITC anti-human Fc
[10] = target: T2, human GARP-TGFβ2 complex expressed by …; experiment: as above

T3 sequence (P01137 30-390 limits assumed, one chain of several): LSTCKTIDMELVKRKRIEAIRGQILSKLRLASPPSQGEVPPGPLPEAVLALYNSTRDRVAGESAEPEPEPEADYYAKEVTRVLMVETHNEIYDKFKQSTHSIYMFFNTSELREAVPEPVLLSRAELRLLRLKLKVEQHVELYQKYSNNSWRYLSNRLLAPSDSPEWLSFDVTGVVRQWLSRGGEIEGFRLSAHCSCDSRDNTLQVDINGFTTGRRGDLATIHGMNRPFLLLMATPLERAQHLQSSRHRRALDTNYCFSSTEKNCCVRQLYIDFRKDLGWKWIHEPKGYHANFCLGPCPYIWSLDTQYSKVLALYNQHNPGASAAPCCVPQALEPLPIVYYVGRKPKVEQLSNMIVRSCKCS
T4 sequence (G3XA59 other isoform, or with tags, fused parts or gaps limits assumed, chain 1 of 2): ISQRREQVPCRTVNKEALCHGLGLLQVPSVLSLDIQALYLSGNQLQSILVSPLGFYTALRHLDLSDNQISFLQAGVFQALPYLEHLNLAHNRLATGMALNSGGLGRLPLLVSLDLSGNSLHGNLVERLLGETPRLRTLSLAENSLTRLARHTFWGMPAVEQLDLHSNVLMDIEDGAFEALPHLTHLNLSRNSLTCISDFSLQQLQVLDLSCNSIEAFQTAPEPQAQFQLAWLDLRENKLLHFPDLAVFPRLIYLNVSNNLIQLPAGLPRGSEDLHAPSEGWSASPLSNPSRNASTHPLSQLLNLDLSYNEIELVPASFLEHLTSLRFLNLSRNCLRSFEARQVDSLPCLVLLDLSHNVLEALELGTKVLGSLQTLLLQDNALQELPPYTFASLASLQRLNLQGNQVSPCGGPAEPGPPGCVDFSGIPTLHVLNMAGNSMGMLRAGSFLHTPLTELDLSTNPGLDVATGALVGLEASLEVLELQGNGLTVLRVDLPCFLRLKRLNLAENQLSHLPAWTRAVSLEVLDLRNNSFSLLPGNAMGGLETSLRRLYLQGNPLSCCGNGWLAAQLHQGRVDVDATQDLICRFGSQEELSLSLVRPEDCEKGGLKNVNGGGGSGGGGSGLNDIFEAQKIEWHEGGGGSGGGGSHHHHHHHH
T4 sequence (P04202 30-390 limits assumed, chain 2 of 2): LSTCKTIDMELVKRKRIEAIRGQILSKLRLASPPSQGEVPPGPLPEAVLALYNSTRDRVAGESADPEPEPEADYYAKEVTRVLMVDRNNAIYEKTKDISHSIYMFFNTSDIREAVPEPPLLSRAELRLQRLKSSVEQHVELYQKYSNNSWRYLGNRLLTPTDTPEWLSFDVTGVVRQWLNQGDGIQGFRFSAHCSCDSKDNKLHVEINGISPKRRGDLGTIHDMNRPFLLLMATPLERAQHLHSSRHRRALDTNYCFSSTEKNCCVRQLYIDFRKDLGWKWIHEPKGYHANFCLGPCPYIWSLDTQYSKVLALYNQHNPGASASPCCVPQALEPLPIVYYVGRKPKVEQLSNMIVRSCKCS
T8 sequence (P04202 30-390, chain 1 of 2): as the sequence (P04202 30-390 limits assumed, chain 2 of 2) above
T8 sequence (G3XA59 18-663, chain 2 of 2): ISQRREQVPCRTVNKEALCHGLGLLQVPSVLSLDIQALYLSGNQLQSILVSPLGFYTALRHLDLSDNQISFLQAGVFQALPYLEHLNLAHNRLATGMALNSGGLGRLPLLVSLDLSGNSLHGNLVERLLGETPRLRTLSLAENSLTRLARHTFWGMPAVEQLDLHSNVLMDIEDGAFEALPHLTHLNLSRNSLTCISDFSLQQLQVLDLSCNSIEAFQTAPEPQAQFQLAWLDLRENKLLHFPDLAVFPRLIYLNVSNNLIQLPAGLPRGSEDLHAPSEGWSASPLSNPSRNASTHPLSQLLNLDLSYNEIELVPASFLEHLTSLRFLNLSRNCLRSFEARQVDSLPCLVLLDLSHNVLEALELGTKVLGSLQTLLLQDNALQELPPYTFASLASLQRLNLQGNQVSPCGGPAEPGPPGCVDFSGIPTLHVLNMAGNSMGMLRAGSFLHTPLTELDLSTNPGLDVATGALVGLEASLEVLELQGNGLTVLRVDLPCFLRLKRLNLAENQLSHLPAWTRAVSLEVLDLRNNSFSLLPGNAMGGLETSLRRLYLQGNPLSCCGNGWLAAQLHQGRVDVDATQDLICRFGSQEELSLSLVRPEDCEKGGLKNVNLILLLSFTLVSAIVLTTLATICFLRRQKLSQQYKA
T6 sequence (P04202 30-390): as the sequence (P04202 30-390 limits assumed, chain 2 of 2) above
T5 sequence (P01137 30-390): as the sequence (P01137 30-390 limits assumed, one chain of several) above
T7 sequence (P01137 30-390, one chain of several): as the sequence (P01137 30-390 limits assumed, one chain of several) above

| Binder | Kd [1] [nM] | koff [1] [s⁻¹] | kon [1] [M⁻¹ s⁻¹] | fold affinity over H27 [2] [fold] | Kd [3] [nM] | koff [3] [s⁻¹] | kon [3] [M⁻¹ s⁻¹] | Kd [4] [nM] | koff [4] [s⁻¹] | kon [4] [M⁻¹ s⁻¹] | binding result [5] | binding result [6] | binding result [7] | binding result [8] | binding result [9] | binding result [10] |
| --- | --- | --- | --- | --- | --- | --- | --- | --- | --- | --- | --- | --- | --- | --- | --- | --- |
| B1 | 0.135 | 5.24e-05 | 387000 | 5 |  |  |  |  |  |  |  |  |  |  |  |  |
| B2 | 0.161 | 6.08e-05 | 379000 | 5 | 0.254 | 9.5e-05 | 375000 | 0.228 | 8.86e-05 | 389000 | binds | binds | binds | binds | no binding (tested: 10 nM) | no binding (tested: 10 nM) |
| B3 | 0.266 | 8.51e-05 | 320000 | 5 |  |  |  |  |  |  |  |  |  |  |  |  |
| B4 | 0.475 | 8.54e-05 | 180000 | 5 |  |  |  |  |  |  |  |  |  |  |  |  |
| B5 | 0.362 | 6.95e-05 | 192000 | 5 |  |  |  |  |  |  |  |  |  |  |  |  |
| B6 |  |  |  |  | 0.332 | 0.000138 | 417000 | 0.226 | 0.000106 | 469000 |  |  |  |  |  |  |
